Tested on: MS2 coat protein
Experiment: apparent KD of MS2 coat protein; designed switch direction (-1 OFF switch, 1 ON switch): -1; higher = weaker reporter binding
Method in brief: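 Each step of the titration lasted 0.8–1.5 h at the lowest concentration and 10–20 min at the highest. The protein, SNAP-549-labelled MS2 coat protein, went from 0.7 or 1.5 nM doubling to 3 µM over RNA switches transcribed on Illumina chips by stalled E. coli RNA polymerase. Normalised cluster fluorescence was curve-fitted, and the per-design median over clusters is given as apparent KD.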

[1] = Eterna round: R95, input ligand: FMN 200 uM
[2] = Eterna round: R95, input ligand: microRNA oligo, concentration not stated
[3] = Eterna round: R95, input ligand: none
[4] = input ligand: microRNA oligo, concentration not stated

Sequence	apparent KD of MS2 coat protein [1] [nM]	apparent KD of MS2 coat protein [2] [nM]	apparent KD of MS2 coat protein [3] [nM]	apparent KD of MS2 coat protein (input ligand: FMN 200 uM) [nM]	apparent KD of MS2 coat protein (input ligand: none) [nM]	apparent KD of MS2 coat protein [4] [nM]
GAGAAACAUGAGGAUCACCCAUGUGAGGAUAUGAAAAAGAAAAGAAAAGAAAGAAGAAUCAGAAGGCACAAAGA [salish99-ex1_r3_084] (puzzle: Exclusion 1)	28.1	27.9	38.9	–	–	–
GAGACACAUGAGGAUCACCCAUGUGAGGAUAUGCGAAGGACCAAAUUAAGAAUUAAAGGCAGAAGGCACAUAAA [Exclusion 1 V4] (puzzle: Exclusion 1)	36.8	35.5	29.3	–	–	–
GAGAUACAUGAGGAUCACCCAUGUGAGGAUAUGAGUCAGUCACGGUGACGUGGCUGACUCAGAAGGCACAAAGG [Mat - Exclusion 1 - JL Mod - D35] (Eterna round: R97, puzzle: Exclusion 1)	–	–	–	88.9	150	–
GAGAUGUGAGGAUAUCUAGACCGCGGAAGAGCUGCGGUCCGAGAGAAGGCACAUGAGGAUCACCCAUGUGAUGA [Attere] (puzzle: Exclusion 4)	–	38.4	–	–	–	–
GAGCCAACAGGAUAUACAUGAGGAUCACCCAUGUGAAUUCGCUACACAGGGAUGAACAGUAGAAGGGUUGGUAU [Eternabot (Original) Solution 49] (Eterna round: R97, puzzle: Exclusion 3)	–	–	–	165	229	–
GAGCUAUGAGGAUAUGCAUAUAUGCGGUUUCGUGUGGUACUACAUGAGGAUCACCCAUGUAGAAGGCGUGGCAG [Mat - Exclusion 2 - Mod of JL - D79] (puzzle: Exclusion 2)	–	13.2	–	–	–	–
GAGCUGUGAGGAUAUACAUGAGGAUCACCCAUGUUAAGGAAGUGGUGUAUAUUGUAGUGUAGAAGGCACUUGUG [JR_Ex3_Sub025] (Eterna round: R97, puzzle: Exclusion 3)	–	–	–	600	306	–
GAGGAGCAAGGAUAUACGAGGAUAUGGAAGGUUGGAGAGUGACAUGAGGAUCACCCAUGUAGAAGGUGCGAGGG [JR_Exclu2_Sub097] (puzzle: Exclusion 2)	–	43.4	–	–	–	–
GAGGCUAAAGGAUAUACAUGAGGAUCACCCAUGUGGAGGAAGGUUAGAUGAGGAGAAGGUAGAAGGUUAGGCGA [JR_Exclu3_Sub093] (puzzle: Exclusion 3)	29.7	23.6	28.6	–	–	–
GAGGGACAUGAGGAUCACCCAUGUGAGGAUAUGGAGAGGAGGAGGGAGGAGGAGGAGGCCAGAAGGCGCAAGAA [THE BEST I guess] (puzzle: Exclusion 1)	22.6	28	46	–	–	–
GAGGGACAUGAGGAUCACCCAUGUGAGGAUAUGUGAGAAGGAUUGGAGAGUGAGUGGGACAGAAGGCGCAAGGG [JR_Exclu1_Sub085] (puzzle: Exclusion 1)	95.4	59.9	78	–	–	–
GAGGGUUAAGGAUAUACAUGAGGAUCACCCAUGUAUGGCAAGCCAUAAUCCUCAUUAAGUAGAAGGUAACCUUC [Edederle] (puzzle: Exclusion 3)	–	11.8	–	–	–	–
GAGUAGAGAGGAUAUGCAAUGAUCAUCGUACGAUGAGGCUGACAUGAGGAUCACCCAUGUAGAAGGCUCUGGUC [EX2 #20] (Eterna round: R97, puzzle: Exclusion 2)	–	–	–	22.5	23.3	–
GAGUAGUAAGGAUAUAGUAGGAGGGAGAAGAGAGGAGAGAACUAGAAGGUACAUGAGGAUCACCCAUGUUGAGA [JR_Exclu4_Sub083] (puzzle: Exclusion 4)	18.5	17	20.4	–	–	–
GAGUGAAGUGCAGGAUAUCUAGAAGGAAGAAGGAGGAAACAUGAGGAUCACCCAUGUAAUCCAUAAGAGAAGGGCGGAGAGGAG [An ugly monster] (Eterna round: R96, puzzle: Exclusion NG 2)	–	–	–	16.3	18.3	14.3
GAGUUAGCGUGAGGAAUAUACAUGAGGAUCACCCAUGUUAGCUAAUAUAUUGCUCGUCUUAUAACAACAAUUAACUC [Alarm 10 - Jieux - Sensor, turn-off variant 1] (Eterna round: R97, puzzle: Sensor, turn-off variant 1)	–	–	–	14.6	13.2	–
GAGUUAGCGUGUGGAAUAUACAUGAGGAUCACCCAUGUUAGCUUAUAUAUUGCUCGUCUUAUAACAACAAUUAACUG [Mod JX-Electric-eye3] (Eterna round: R97, puzzle: Sensor, turn-off variant 1)	–	–	–	138	143	–
GAUAAGGUAGGAUAUACGAAUAAAAAGGGUAGAAGAAGAACACAUGAGGAUCACCCAUGUAGAAGGACCAAUAG [Mat - Exclusion 2 - Mod of my Tesla design - D24] (puzzle: Exclusion 2)	37.9	19.7	16.5	–	–	–

Sequence	apparent KD of MS2 coat protein [1] [nM]	apparent KD of MS2 coat protein [2] [nM]	apparent KD of MS2 coat protein [3] [nM]	apparent KD of MS2 coat protein (input ligand: FMN 200 uM) [nM]	apparent KD of MS2 coat protein (input ligand: none) [nM]	apparent KD of MS2 coat protein [4] [nM]
GAUAAGGUAGGAUAUACGAAUAAAUAGGGUAGUAAUAAUACACAUGAGGAUCACCCAUGUAGAAGGACCAAUAG [Mat - Exclusion 2 - Mod of my Tesla design - D41] (puzzle: Exclusion 2)	37.4	19.4	21.4	–	–	–
GAUAGAGAGCAGGAUAUCUUGGGUAAGUAUCAUAGAGAAGGGCUCACAUGAGGAUCACCCAUGUGGUCCAAGAU [Dibira] (puzzle: Exclusion 6)	42.8	13	12.6	–	–	–
GAUAGAGAGCAGGAUAUCUUGGGUAAGUAUCGUAGAGAAGGGCUCACAUGAGGAUCACCCAUGUGGUCCAAGAU [JL Dibiri mod 01] (puzzle: Exclusion 6)	–	14.4	–	–	–	–
GAUAUAGAGCAGGAUAUCUUAGAUAUGUAAUAAAGAGAAGGGCUCACAUGAGGAUCACCCAUGUGGUCCUAGAU [JL Dibiri mod 13] (puzzle: Exclusion 6)	–	20.7	–	–	–	–
GAUCAACAUGAGGAUCACCCAUGUGAGGAUAUGAUACUAUGUACUUCGGUACAUAGUAUCAGAAGGCACAUUGA [Ex1-3: 42] (puzzle: Exclusion 1)	–	90.9	–	–	–	–
GAUCAUGCAGGAUAUACAGUUUCCAUGAUAACAUGGUCCUCACAUGAGGAUCACCCAUGUAGAAGGGCAUGAUC [Omei Ex2 A29] (Eterna round: R97, puzzle: Exclusion 2)	–	–	–	258	1080	–
GAUCAUGCAGGAUAUACAUGGAUCAUGAAAACAUGGAUUUCACAUGAGGAUCACCCAUGUAGAAGGGCAUGAUC [Omei Ex2 A10] (Eterna round: R97, puzzle: Exclusion 2)	–	–	–	47.5	141	–
GAUCCACAUGAGGAUCACCCAUGUGAGGAUAUGAUACUAUGUACUUCGGUACAUAGUAUCAGAAGGCACAGGUC [Ex1-3: 56] (Eterna round: R96, puzzle: Exclusion 1)	–	–	–	333	52.9	50.7
GAUCCACAUGAGGAUCACCCAUGUGAGGAUAUGAUACUAUGUACUUCGGUACAUAGUAUCAGAAGGCACAGGUC [Ex1-3: 56] (puzzle: Exclusion 1)	–	50.6	–	–	–	–
GAUGAGGUAGGAUAUACGAUAAUAUAGGGUAGAUAUAUAACACAUGAGGAUCACCCAUGUAGAAGGACCAGUAC [Mat - Exclusion 2 - Mod of my Tesla design - D69] (puzzle: Exclusion 2)	–	36.4	–	–	–	–
GAUGUUUAAGGAUAUACAAUGAAUGUAUGCCACAUGGAAAUACAUGAGGAUCACCCAUGUAGAAGGUAAGGGAU [Eternabot (L2) Solution 37] (Eterna round: R97, puzzle: Exclusion 2)	–	–	–	27.1	20.5	–
GAUUAACAUGAGGAUCACCCAUGUGAGGAUAUACGAGAAUAGAUUUCGAUCAGAUAGAGUAGAAGGCACAGAUA [EX1 #1] (Eterna round: R97, puzzle: Exclusion 1)	–	–	–	44.9	27	–
GAUUAACAUGAGGAUCACCCAUGUGAGGAUAUGGAAUGGCUCAUUGUUUGAUUCCCGUCUAGAAGGCACAUCUU [1986#7] (Eterna round: R97, puzzle: Exclusion 1)	–	–	–	150	116	–
GAUUAUGCGAGCUUUAGGGACAUGAGGAUCACCCAUGUUCGUCUUAUUAAUCUGGGUACACUAGCAUACCUAAAUCU [JMF 8] (puzzle: Sensor v3, turn-off variant 1)	26.9	44.1	30.5	–	–	–
GAUUAUGCGAGCUUUAGGGACAUGAGGAUCACCCAUGUUCGUCUUAUUAGUCUGGGUACACUGACAUACCUAAAUCU [JMF 71] (puzzle: Sensor v3, turn-off variant 1)	24.6	35.2	25.4	–	–	–
GAUUAUGCGAGCUUUAGGGACAUGAGGAUCACCCAUGUUCGUCUUAUUGAUCUAGGUACGCUGACGUACCUAAAUCU [Mod of one of jandersonlee's solutions] (puzzle: Sensor v3, turn-off variant 1)	20.5	35.2	23.4	–	–	–
GAUUAUGCGAGCUUUAGGGACAUGAGGAUCACCCAUGUUCGUCUUAUUGAUCUGGGUACACUAACAUACCUAAAUCU [JMF 20] (puzzle: Sensor v3, turn-off variant 1)	87.2	99.7	94.3	–	–	–
GAUUAUGCGAGCUUUAGGGACAUGAGGAUCACCCAUGUUCGUCUUAUUGGUCUAGGUGCGCUAACAUACCUAAAUCU [JMF 51] (puzzle: Sensor v3, turn-off variant 1)	21.9	34.8	25.4	–	–	–
